Assay results from PMC11630639, “Real-time single-molecule imaging of CaMKII-calmodulin interactions” (Biophysical Journal, 2024).

Assays:
[1] = target: wheat germ rhodamine-calmodulin (r-CAM) (UniProt P04464); experiment: single-molecule two-colour TIRFM, immobilised holoenzyme; conditions: reference: T287A holoenzyme (T306, T307 intact); sites T306,T307
[2] = target: the molecule itself; experiment: single-molecule stepwise photobleaching of Venus (TIRF microscopy); V-CaMKII held on a coverslip by GFP antibody; photobleaching steps in the Venus channel counted with a step-finder algorithm to give subunit stoichiometry (S_CaMKII)

| Molecule | other: τ+/τ− ratio [1] | binding result [2] |
| --- | --- | --- |
| CaMKIIβ (Venus-CaMKIIβ) (from UniProt P28652) T287A/T306A/T307A holoenzyme | stronger; reference 1.76 | – |
| Venus-CaMKIIβ T287.306-307A holoenzyme (enzyme, mouse, UniProt P28652 1-542, looked up, CaMKII β isoform with T to A substitutions at T287, T306 and T307; also called T287.T306.307A; phosphorylation-defective holoenzyme; source: E. coli BL21/Rosetta or BL21/C41, cotransformed with a protein phosphatase plasmid; copies: 14) MATTVTCTRFTDEYQLYEDIGKGAFSVVRRCVKLCTGHEYAAKIINTKKLSARDHQKLEREARICRLLKHSNIVRLHDSISEEGFHYLVFDLVTGGELFEDIVAREYYSEADASHCIQQILEAVLHCHQMGVVHRDLKPENLLLASKCKGAAVKLADFGLAIEVQGDQQAWFGFAGTPGYLSPEVLRKEAYGKPVDIWACGVILYILLVGYPPFWDEDQHKLYQQIKAGAYDFPSPEWDTVTPEAKNLINQMLTINPAKRITAHEALKHPWVCQRSTVASMMHRQEAVECLKKFNARRKLKGAILAAMLATRNFSVGRQTTAPATMSTAASGTTMGLVEQAKSLLNKKADGVKPQTNSTKNSSAITSPKGSLPPAALEPQTTVIHNPVDGIKESSDSTNTTIEDEDAKARKQEIIKTTEQLIEAVNNGDFEAYAKICDPGLTSFEPEALGNLVEGMDFHRFYFENLLAKNSKPIHTTILNPHVHVIGEDAACIAYIRLTQYIDGQGRPRTSQSEETRVWHRRDGKWQNVHFHCSGAPVAPLQ | – | binds |
